Laboratory results as given in patent US20040175731, “Methods and products for treating staphylococcal infections” (The Brigham and Women's Hospital, Inc., published 2004).

Key:
IcaR [1] = biological target: T1, IcaR (Staphylococcus aureus, UniProt Q9RQQ0 SEQ:1-186); assay: EMSA; on ice; competed by 100x specific competitor; details: tags: N-terminal His6 (pCRT7-NT); chain copies: 2; label: 32P
T1 sequence: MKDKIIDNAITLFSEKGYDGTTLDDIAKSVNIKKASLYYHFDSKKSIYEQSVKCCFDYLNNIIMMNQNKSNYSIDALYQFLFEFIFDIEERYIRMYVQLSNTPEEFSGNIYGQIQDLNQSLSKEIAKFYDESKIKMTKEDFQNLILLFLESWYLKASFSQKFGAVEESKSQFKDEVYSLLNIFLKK

TcaR [2] = biological target: T2, TcaR (Staphylococcus aureus, UniProt Q9F4G3 Q9F4G3:1-151); assay: footprint; data not shown; multiple sites protected, specific and high affinity; details: chain copies: 2; label: 32P
T2 sequence (Q9F4G3 whole entry, one chain of several): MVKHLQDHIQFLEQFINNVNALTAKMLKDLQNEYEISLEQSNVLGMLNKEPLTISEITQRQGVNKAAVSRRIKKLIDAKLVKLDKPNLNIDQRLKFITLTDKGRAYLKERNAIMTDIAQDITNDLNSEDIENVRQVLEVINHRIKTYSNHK

IcaR [3] = biological target: T1, IcaR; assay: EMSA; recombinant IcaR failed to bind either short probe; details: tags: N-terminal His6 (pCRT7-NT); chain copies: 2; label: 32P
IcaR [4] = biological target: T1, IcaR; assay: EMSA; data not shown; details: tags: N-terminal His6 (pCRT7-NT); chain copies: 2; label: 32P
IcaR [5] = biological target: T1, IcaR; assay: EMSA; no detectable difference from WT probe; details: tags: N-terminal His6 (pCRT7-NT); chain copies: 2; label: 32P
TcaR [6] = biological target: T2, TcaR; assay: footprint; data not shown; protection much the same as WT; details: chain copies: 2; label: 32P

B1: 198-bp WT ica promoter probe (dsDNA)
DNA 1: ATTGCGTTATCAATAATCTTATCCTTCAATTTTTATAACCCCCTACTGAAAATTAATCACACTATGTTACAGGAAAATTAAGTTGCAATTACAAATATTTCCGTTTAATTATAACAACAATCTATTGCAAATTAAAATACTATCAATTACCATATGGCTTACAACCTAACTAACGAAAGGTAGGTAAAGAAATTGCAA
DNA 2: TTGCAATTTCTTTACCTACCTTTCGTTAGTTAGGTTGTAAGCCATATGGTAATTGATAGTATTTTAATTTGCAATAGATTGTTGTTATAATTAAACGGAAATATTTGTAATTGCAACTTAATTTTCCTGTAACATAGTGTGATTAATTTTCAGTAGGGGGTTATAAAAATTGAAGGATAAGATTATTGATAACGCAAT
binding result (IcaR [1]): binds
binding result (TcaR [2]): binds

B2: DEL/MUC 48-bp (dsDNA)
DNA 1: CTATGTTACAGGAAAATTAAGTTGCAATTACAAACCGTTTAATTATAA
DNA 2: TTATAATTAAACGGTTTGTAATTGCAACTTAATTTTCCTGTAACATAG
binding result (IcaR [3]): no binding

B3: WTshort 53-bp (dsDNA)
DNA 1: CTATGTTACAGGAAAATTAAGTTGCAATTACAAATATTTCCGTTTAATTATAA
DNA 2: TTATAATTAAACGGAAATATTTGTAATTGCAACTTAATTTTCCTGTAACATAG
binding result (IcaR [4]): no binding

B4: 193-bp MUC ica promoter probe (dsDNA)
DNA 1: ATTGCGTTATCAATAATCTTATCCTTCAATTTTTATAACCCCCTACTGAAAATTAATCACACTATGTTACAGGAAAATTAAGTTGCAATTACAAACCGTTTAATTATAACAACAATCTATTGCAAATTAAAATACTATCAATTACCATATGGCTTACAACCTAACTAACGAAAGGTAGGTAAAGAAATTGCAA
DNA 2: TTGCAATTTCTTTACCTACCTTTCGTTAGTTAGGTTGTAAGCCATATGGTAATTGATAGTATTTTAATTTGCAATAGATTGTTGTTATAATTAAACGGTTTGTAATTGCAACTTAATTTTCCTGTAACATAGTGTGATTAATTTTCAGTAGGGGGTTATAAAAATTGAAGGATAAGATTATTGATAACGCAAT
binding result (IcaR [5]): binds
binding result (TcaR [6]): binds
